Measured values published in publication PMC2131756, “Grb7 SH2 domain structure and interactions with a cyclic peptide inhibitor of cancer cell migration and proliferation” (BMC Structural Biology, 2007).
“Also recorded” adds a separate entry of the source. Blank lines part the entries; values can stand above or below the molecule they belong to.

Columns and labels:
[1] = target: pY1139 phosphopeptide (ErbB2) (Homo sapiens) (UniProt P04626); conditions: cited from earlier work
[2] = system: full-length Grb7; test: Analytical ultracentrifugation: dimerisation of full-length Grb7; format: binding, human
Method: (§1) Figure 4 Sedimentation equilibrium analysis of the Grb7 SH2 and Grb7. (a) Absorbance at 280 nm verses radius data at sedimentation equilibrium for Grb7 SH2 at an initial loading concentration of 36 μM. The data collected at 14,000 rpm (circles), 16,600 rpm (squares), 24,300 rpm (diamonds) and 28,800 rpm (triangles) were fitted simultaneously using the nonlinear regression program. (b) Absorbance at 280 nm verses radius data at sedimentation equilibrium for Grb7 at an initial loading concentrations of 12 μM. The data collected at 10,000 rpm (circles) and 11,800 rpm (squares) were fitted simultaneously using the nonlinear regression program NONLIN [77]. The solid line represents the calculated fit to a monomer-dimer model. […]
(§2) Grb7 SH2 domain and full-length Grb7 were analysed at loading concentrations of A280 values of 0.1, 0.3 and 0.6. […] Absorption profiles were recorded at 280 and 360 nm with automatic dialysate absorption compensation. The data were recorded in 0.001-cm steps and ten scans were averaged to produce each profile. The system was deemed to be in equilibrium when profiles recorded 4 h apart were identical. The data were analysed by fitting models of association to the absorbance versus radial position distribution using the program NONLIN [48, 49]. […] The density of the buffer solution was calculated to be 1.00379 g/ml using the program […] v1.08 [74].

[3] = system: breast cancer cells; conditions: co-treatment with cell permeable G7-18NATE peptide, ref [19]; cited from earlier work
[4] = target: T1, Grb7 SH2 domain (Homo sapiens, UniProt Q14451); test: Analytical ultracentrifugation: dimerisation of Grb7 SH2 domain; format: binding
T1 construct: encoding residues 415-532 of human Grb7; GST (N, cleaved yes); made in house; host or cells: Escherichia coli BL21(DE3).pLysS
Method: as §1, §2

[5] = target: the molecule itself; test: AUC; sedimentation equilibrium, 20°C, Grb7 SH2 at an initial loading concentration of 36 μM, 14,000-28,800 rpm, 50 mM MES pH 6.6, 100 mM NaCl, 1 mM DTT; global fit to a monomer-dimer model (NONLIN); dimer to monomers

Molecule: Grb7 SH2 (from UniProt Q14451)
Kd [1]: 2.3 µM

Molecule: full-length Grb7: Full-length Grb7 (residues 1 – 532)
dimer formation (in words) [2]: in the μM range; also recorded: forms dimers in vitro with a similar affinity to that exhibited by the SH2 domain alone; also recorded: same order of magnitude as that obtained for the SH2 domain alone

Molecule: COc1cccc2c1C(=O)c1c(O)c3c(c(O)c1C2=O)C[C@@](O)(C(=O)CO)C[C@@H]3O[C@H]1C[C@H](N)[C@H](O)[C@H](C)O1 [Doxorubicin]
change of drug EC50 on co-treatment (in words) [3]: significant reduction of the drug EC50 value

dimer association compared with previous experiments at 4 °C (in words) ([4]; 20 °C versus 4 °C, ref [38]): slightly weaker association | dimer formation (in words) ([4]; analytical ultracentrifugation): in the μM range
B1: Grb7 SH2 domain (residues 415-532 of human Grb7) (domain or fragment)
chain: GSPASGTSLSAAIHRTQLWFHGRISREESQRLIGQQGLVDGLFLVRESQRNPQGFVLSLCHLQKVKHYLILPSEEEGRLYFSMDDGQTRFTDLLQLVEFHQLNRGILPCLLRHCCTRVAL
notes: first two of the 7 N-terminal residues of the construct, printed as GSPASGT; 15N-labelled (minimal medium with 15NH4Cl) for the NMR titration, unlabelled otherwise; Expected mass 13,672 g/mol; Residues 420-532 are seen in the crystal structure; also called 15N-Grb7 SH2
Kd [5]: 21.8 µM | stoichiometry N [5]: 2
